Assay results published in IntAct's records for PubMed 35512704.

B1: Mothers against decapentaplegic homolog 4 (Homo sapiens), Q13485 (parent)
chain: MDNMSITNTPTSNDACLSIVHSLMCHRQGGESETFAKRAIESLVKKLKEKKDELDSLITAITTNGAHPSKCVTIQRTLDGRLQVAGRKGFPHVIYARLWRWPDLHKNELKHVKYCQYAFDLKCDSVCVNPYHYERVVSPGIDLSGLTLQSNAPSSMMVKDEYVHDFEGQPSLSTEGHSIQTIQHPPSNRASTETYSTPALLAPSESNATSTANFPNIPVASTSQPASILGGSHSEGLLQIASGPQPGQQQNGFTGQPATYHHNSTTTWTGSRTAPYTPNLPHHQNGHLQHHPPMPPHPGHYWPVHNELAFQPPISNHPAPEYWCSIAYFEMDVQVGETFKVPSSCPIVTVDGYVDPSGGDRFCLGQLSNVHRTEAIERARLHIGKGVQLECKGEGDVWVRCLSDHAVFVQSYYLDREAGRAPGDAVHKIYPSAYIKVFDLRQCHRQMQQQAATAQAAAAAQAAAVAGNIPGPGSVGGIAPAISLSAAAGIGVDDLRRLCILRMSFVKGWGPDYPRQSIKETPCWIEIHLHRALQLLDEVLHTMPIADPQPLD
partner: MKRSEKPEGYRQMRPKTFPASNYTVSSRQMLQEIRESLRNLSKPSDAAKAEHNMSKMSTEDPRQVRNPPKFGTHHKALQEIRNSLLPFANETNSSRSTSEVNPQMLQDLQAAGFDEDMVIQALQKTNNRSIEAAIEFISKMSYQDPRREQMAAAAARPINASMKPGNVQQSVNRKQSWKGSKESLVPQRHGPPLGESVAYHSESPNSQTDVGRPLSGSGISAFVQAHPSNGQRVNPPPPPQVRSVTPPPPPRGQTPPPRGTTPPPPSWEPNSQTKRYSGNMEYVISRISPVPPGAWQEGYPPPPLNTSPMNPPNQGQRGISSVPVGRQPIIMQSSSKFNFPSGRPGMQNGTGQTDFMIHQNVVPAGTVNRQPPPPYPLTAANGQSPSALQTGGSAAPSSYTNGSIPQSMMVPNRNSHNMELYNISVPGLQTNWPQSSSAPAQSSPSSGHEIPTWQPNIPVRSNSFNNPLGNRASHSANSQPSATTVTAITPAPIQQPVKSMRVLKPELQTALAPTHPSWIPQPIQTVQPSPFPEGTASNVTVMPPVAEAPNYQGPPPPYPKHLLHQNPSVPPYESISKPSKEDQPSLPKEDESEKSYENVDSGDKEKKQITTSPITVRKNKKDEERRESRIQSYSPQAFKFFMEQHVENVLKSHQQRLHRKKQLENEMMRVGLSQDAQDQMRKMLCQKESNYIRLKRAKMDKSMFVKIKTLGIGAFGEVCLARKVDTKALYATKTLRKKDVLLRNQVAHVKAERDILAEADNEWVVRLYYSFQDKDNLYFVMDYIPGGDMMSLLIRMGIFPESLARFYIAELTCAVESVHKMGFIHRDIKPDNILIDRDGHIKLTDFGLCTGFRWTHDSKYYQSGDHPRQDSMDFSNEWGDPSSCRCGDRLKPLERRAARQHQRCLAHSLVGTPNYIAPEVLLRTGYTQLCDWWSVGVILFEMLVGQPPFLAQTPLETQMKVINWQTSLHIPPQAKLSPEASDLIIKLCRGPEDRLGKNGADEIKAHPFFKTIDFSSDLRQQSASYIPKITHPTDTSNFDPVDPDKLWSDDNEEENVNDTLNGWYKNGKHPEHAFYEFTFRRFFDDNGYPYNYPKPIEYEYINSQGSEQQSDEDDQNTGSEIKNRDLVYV
B2: Mothers against decapentaplegic homolog 4 (Homo sapiens), Q13485 (parent)
chain: B1 chain
partner: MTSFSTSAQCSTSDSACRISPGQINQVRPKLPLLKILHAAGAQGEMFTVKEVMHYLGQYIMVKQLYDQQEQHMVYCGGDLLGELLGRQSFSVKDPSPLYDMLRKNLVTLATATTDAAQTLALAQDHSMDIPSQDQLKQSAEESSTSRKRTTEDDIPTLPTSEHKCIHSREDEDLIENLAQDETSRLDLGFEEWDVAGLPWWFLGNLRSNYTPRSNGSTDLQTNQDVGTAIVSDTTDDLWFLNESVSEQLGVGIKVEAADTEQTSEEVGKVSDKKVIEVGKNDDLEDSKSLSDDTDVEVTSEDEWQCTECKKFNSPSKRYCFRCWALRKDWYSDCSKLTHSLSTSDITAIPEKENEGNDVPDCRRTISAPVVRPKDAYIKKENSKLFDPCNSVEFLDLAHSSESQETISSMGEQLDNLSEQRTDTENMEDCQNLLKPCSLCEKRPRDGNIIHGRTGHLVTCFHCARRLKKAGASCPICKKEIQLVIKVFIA
B3: Mothers against decapentaplegic homolog 4 (Homo sapiens), Q13485 (parent)
chain: B1 chain
partner: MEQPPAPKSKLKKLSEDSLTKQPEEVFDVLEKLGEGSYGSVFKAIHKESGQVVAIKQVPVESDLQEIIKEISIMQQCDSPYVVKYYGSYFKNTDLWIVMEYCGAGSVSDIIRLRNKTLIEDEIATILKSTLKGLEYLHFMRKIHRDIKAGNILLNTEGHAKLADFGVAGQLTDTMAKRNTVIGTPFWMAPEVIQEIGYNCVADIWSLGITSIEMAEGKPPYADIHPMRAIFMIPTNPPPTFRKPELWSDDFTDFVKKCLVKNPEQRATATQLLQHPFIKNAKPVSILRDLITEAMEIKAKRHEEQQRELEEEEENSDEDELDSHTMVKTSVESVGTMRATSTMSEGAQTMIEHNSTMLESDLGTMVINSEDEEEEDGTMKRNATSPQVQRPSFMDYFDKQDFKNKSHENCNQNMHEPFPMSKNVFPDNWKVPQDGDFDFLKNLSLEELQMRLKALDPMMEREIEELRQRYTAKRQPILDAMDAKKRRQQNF
B4: Mothers against decapentaplegic homolog 4 (Homo sapiens), Q13485 (parent)
chain: B1 chain
partner: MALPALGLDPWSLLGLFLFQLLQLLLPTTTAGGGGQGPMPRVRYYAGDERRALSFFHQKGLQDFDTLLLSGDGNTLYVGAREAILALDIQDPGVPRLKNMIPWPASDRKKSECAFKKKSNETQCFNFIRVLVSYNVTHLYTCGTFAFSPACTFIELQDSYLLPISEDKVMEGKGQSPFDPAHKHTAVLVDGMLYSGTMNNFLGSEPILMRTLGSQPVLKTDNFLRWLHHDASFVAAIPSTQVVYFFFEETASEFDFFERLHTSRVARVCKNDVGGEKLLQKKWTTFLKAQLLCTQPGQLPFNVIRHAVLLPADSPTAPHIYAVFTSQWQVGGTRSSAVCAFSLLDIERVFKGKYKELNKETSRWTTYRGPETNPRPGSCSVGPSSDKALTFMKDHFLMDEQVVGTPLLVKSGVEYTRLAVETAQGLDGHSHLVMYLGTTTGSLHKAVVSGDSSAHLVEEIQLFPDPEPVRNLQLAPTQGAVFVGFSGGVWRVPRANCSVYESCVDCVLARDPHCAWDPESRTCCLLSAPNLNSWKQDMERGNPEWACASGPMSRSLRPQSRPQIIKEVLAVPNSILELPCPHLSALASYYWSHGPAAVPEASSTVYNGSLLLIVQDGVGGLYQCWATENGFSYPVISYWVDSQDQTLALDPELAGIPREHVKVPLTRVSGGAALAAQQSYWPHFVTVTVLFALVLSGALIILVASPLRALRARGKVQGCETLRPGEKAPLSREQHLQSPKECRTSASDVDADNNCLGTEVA
B5: Mothers against decapentaplegic homolog 4 (Homo sapiens), Q13485 (parent)
chain: B1 chain
partner: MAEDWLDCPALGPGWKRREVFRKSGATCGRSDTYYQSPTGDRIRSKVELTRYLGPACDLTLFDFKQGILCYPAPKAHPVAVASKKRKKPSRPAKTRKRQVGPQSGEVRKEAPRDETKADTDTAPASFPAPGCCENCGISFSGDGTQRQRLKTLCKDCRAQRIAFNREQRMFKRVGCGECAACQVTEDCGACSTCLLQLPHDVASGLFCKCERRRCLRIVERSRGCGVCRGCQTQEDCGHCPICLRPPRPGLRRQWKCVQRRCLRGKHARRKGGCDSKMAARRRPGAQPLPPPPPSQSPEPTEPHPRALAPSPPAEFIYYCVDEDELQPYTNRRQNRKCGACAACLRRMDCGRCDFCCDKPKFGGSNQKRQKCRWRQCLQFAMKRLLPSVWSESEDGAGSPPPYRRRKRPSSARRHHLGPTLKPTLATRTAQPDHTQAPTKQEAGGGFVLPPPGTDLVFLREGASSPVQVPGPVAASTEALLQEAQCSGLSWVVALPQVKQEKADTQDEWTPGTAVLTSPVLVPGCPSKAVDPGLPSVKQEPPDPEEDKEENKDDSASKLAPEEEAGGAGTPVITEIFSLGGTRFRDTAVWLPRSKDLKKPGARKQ
B6: Mothers against decapentaplegic homolog 4 (Homo sapiens), Q13485 (parent)
chain: B1 chain
partner: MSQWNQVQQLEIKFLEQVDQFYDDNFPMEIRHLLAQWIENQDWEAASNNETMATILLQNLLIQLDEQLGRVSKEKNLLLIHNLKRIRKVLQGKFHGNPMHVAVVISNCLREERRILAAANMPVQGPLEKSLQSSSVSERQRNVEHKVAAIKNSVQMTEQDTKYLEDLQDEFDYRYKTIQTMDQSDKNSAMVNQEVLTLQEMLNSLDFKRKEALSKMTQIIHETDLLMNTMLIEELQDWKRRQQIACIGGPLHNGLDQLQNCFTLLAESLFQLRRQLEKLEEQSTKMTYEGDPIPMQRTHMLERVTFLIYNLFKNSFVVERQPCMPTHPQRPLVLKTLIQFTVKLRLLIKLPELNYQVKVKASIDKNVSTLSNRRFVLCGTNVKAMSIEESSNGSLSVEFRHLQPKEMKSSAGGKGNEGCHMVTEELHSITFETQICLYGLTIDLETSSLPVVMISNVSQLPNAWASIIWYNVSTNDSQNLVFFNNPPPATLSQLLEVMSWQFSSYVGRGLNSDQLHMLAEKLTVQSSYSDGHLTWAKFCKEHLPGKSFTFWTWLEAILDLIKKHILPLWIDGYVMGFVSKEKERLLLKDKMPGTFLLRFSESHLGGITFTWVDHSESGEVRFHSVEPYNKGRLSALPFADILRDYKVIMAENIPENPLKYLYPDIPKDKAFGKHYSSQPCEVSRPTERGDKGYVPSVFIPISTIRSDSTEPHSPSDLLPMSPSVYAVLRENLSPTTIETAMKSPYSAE
B7: Mothers against decapentaplegic homolog 4 (Homo sapiens), Q13485 (parent)
chain: B1 chain
partner: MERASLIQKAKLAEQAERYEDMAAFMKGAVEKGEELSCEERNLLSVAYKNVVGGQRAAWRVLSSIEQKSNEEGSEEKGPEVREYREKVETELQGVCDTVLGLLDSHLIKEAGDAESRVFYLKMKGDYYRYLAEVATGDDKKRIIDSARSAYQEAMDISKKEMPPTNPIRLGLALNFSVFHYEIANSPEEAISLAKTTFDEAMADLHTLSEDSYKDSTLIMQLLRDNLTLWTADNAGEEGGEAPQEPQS

Variants of: B1
Details: with lats1_human LATS1, O95835

Variant	effect of a mutation on the interaction
R361C	with no effect

Variants of: B1
Details: with lats1_human LATS1, O95835
Remark: another data set of the same source

Variant	effect of a mutation on the interaction
R361H	with no effect

Variants of: B2
Details: with mdm4_human MDM4, O15151

Variant	effect of a mutation on the interaction
R361H	with no effect

Variants of: B2
Details: with mdm4_human MDM4, O15151
Remark: another data set of the same source

Variant	effect of a mutation on the interaction
G386D	with no effect

Variants of: B2
Details: with mdm4_human MDM4, O15151
Remark: another data set of the same source

Variant	effect of a mutation on the interaction
D351H	with no effect

Variants of: B3
Details: with stk3_human STK3, Q13188

Variant	effect of a mutation on the interaction
D351H	with no effect

Variants of: B3
Details: with stk3_human STK3, Q13188
Remark: another data set of the same source

Variant	effect of a mutation on the interaction
G386D	with no effect

Variants of: B3
Details: with stk3_human STK3, Q13188
Remark: another data set of the same source

Variant	effect of a mutation on the interaction
R361H	with no effect

Variants of: B3
Details: with stk3_human STK3, Q13188
Remark: another data set of the same source

Variant	effect of a mutation on the interaction
R361C	with no effect

Variants of: B4
Details: with sem4a_human SEMA4A

Variant	effect of a mutation on the interaction
R361C	with no effect

Variants of: B4
Details: with sem4a_human SEMA4A
Remark: another data set of the same source

Variant	effect of a mutation on the interaction
R361H	with no effect

Variants of: B4
Details: with sem4a_human SEMA4A
Remark: another data set of the same source

Variant	effect of a mutation on the interaction
D351H	with no effect

Variants of: B4
Details: with sem4a_human SEMA4A
Remark: another data set of the same source

Variant	effect of a mutation on the interaction
G386D	with no effect

Variants of: B5
Details: with mbd1_human MBD1, Q9UIS9

Variant	effect of a mutation on the interaction
R361H	with no effect

Variants of: B5
Details: with mbd1_human MBD1, Q9UIS9
Remark: another data set of the same source

Variant	effect of a mutation on the interaction
R361C	with no effect

Variants of: B5
Details: with mbd1_human MBD1, Q9UIS9
Remark: another data set of the same source

Variant	effect of a mutation on the interaction
D351H	with no effect

Variants of: B5
Details: with mbd1_human MBD1, Q9UIS9
Remark: another data set of the same source

Variant	effect of a mutation on the interaction
G386D	with no effect

Variants of: B6
Details: with stat4_human STAT4, Q14765

Variant	effect of a mutation on the interaction
G386D	with no effect

Variants of: B6
Details: with stat4_human STAT4, Q14765
Remark: another data set of the same source

Variant	effect of a mutation on the interaction
R361H	with no effect

Variants of: B6
Details: with stat4_human STAT4, Q14765
Remark: another data set of the same source

Variant	effect of a mutation on the interaction
R361C	with no effect

Variants of: B6
Details: with stat4_human STAT4, Q14765
Remark: another data set of the same source

Variant	effect of a mutation on the interaction
D351H	with no effect

Variants of: B7
Details: with 1433s_human SFN

Variant	effect of a mutation on the interaction
D351H	with no effect

Variants of: B7
Details: with 1433s_human SFN
Remark: another data set of the same source

Variant	effect of a mutation on the interaction
G386D	with no effect
